Reference: US20050142114A1

Legend:
[1] = molecular target: CD209 (DC-SIGN) on monocyte-derived dendritic cells (human) (UniProt Q9NNX6); test: flow cytometry, right shift of the whole histogram vs. control peak (FIG. 1)
[2] = molecular target: CD209 (DC-SIGN) on monocyte-derived dendritic cells (human) (UniProt Q9NNX6); test: flow cytometry; calcein signal of immunoliposomes relative to FITC signal of the mAb
[3] = molecular target: CD209 (DC-SIGN) on monocyte-derived dendritic cells (human) (UniProt Q9NNX6); test: flow cytometry, percent of MoDCs positive for calcein after monospecific anti-CD209 protein A immunoliposomes (FIG. 4A)

UniProt Q9NNX6, sequence (Q9NNX6 whole entry): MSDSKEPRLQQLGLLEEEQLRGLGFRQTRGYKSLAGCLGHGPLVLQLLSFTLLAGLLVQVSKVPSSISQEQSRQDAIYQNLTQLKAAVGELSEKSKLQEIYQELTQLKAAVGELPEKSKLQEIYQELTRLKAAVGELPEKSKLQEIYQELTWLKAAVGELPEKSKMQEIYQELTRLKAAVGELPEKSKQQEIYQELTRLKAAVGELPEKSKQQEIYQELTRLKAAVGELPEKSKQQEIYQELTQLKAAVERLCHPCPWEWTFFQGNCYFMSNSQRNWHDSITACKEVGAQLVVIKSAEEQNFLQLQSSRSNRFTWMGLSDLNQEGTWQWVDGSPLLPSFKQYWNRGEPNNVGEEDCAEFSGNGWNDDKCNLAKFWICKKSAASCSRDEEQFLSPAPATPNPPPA

percent of cells targeted [1]: 100%
TEILS (immunoliposomal net targeting efficacy) [2]: 110%
liposomal targeting efficacy [3]: 83.3%
Substance: CD209-specific mAb derived from clone 120507 (IgG2b), R&D Systems (antibody)
